Values of other authors in article PMC1079850.

Biological target: Tsr (Escherichia coli) (UniProt P02942)
Assay: given as Ka

Tsr (Escherichia coli), sequence (P02942 whole entry): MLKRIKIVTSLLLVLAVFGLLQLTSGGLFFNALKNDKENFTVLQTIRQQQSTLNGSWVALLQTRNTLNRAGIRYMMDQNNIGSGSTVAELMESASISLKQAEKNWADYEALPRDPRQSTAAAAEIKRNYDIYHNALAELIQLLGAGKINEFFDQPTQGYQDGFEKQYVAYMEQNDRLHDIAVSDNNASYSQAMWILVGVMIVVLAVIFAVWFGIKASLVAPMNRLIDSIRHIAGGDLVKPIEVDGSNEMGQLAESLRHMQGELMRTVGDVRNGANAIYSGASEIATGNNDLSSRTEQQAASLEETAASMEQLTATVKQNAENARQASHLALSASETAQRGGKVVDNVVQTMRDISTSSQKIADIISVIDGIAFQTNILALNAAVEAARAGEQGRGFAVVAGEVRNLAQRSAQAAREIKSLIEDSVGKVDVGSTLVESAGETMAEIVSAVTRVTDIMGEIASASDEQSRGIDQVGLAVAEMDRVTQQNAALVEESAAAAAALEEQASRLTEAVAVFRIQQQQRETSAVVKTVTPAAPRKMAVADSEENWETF
CheR, sequence (P07364 whole entry): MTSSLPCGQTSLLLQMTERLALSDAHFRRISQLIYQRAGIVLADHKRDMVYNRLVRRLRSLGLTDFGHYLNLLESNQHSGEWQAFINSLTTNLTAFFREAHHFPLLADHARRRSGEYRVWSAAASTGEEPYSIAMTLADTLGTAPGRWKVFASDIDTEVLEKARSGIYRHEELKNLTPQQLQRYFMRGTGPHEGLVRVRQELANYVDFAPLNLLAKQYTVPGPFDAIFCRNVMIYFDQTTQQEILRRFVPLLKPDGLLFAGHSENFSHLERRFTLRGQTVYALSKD

Question: Which Kd does the source give for CheR (from UniProt P07364) here?
Answer: The Kd was 2500 nM.
